The values below come from patent CN115703834A (BOAOXIN BIOTECHNOLOGY NANJING CO LTD, dated 2023).

Test [1] has as its target T1, 人CD47 (表面过表达人CD47的293F细胞) (human, UniProt Q08722 19-323).
T1 construct: whole, on cells; also called 表面过表达人CD47的稳定细胞系293F
As to the kind of experiment: flow cytometry on 293F cells overexpressing human CD47. On the technique in general: In flow cytometry, cells or beads pass a laser one at a time.

In test [2] the target is T2, 重组人CD47-his蛋白 (ACRO biosystems, cat#CD7-H5227, MW 15.6 kDa) (human, UniProt Q08722 19-139, biotin-labelled in the ELISA assays (sites not given); unlabelled in Biacore).
T2 construct: Bought protein; The same catalogue number is used unlabelled (SPR) and biotin-labelled (ELISAs); also called 人CD47蛋白; 生物素标记的人CD47; not shown: His tag
T2 sequence (Q08722 19-139 limits assumed): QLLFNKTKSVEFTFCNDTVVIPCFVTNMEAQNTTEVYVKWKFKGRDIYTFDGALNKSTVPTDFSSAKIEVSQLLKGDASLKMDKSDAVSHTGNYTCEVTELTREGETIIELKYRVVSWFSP
As to the kind of experiment: SPR (Biacore T200), antibody captured on goat anti-mouse IgG, CD47-his in flow. A general note: Surface plasmon resonance follows binding to a sensor surface in real time, without labels.

T1 sequence (Q08722 19-323): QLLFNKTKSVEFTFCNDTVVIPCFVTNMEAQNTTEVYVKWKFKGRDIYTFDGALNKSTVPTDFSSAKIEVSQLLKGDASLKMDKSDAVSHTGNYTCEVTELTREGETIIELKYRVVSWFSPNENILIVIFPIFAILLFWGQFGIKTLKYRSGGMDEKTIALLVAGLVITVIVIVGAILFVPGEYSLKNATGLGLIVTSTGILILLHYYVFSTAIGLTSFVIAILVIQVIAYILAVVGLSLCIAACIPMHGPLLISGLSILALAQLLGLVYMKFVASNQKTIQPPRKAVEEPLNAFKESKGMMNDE

B1: 抗人CD47单克隆抗体1A5 (antibody, V domains shown)
VH: EVQLQQSGAELVRSGASVTLSCTASGFNIKDYYMNWVKQRPEQGLEWIGWIGPENGDTENDPRFQGKATMTADTSSNTAFLQLSSLTSEDTAFYYCNAGGRGGFPYWGQGTLVTVST
VL: DILLTQTPLSLPVSLGDQASFSCRSSQNIVHINGKTYLEWYLQKPGQSPKLLIYRVSNRFSGVPDRFSGSGSGTDFTLKISRVEAEDLGVYYCFQGSHVPRTFGGGTKLEIK
notes: also called 本发明的单克隆抗体1A5; 本发明的抗体1A5
In the case of B1, the binding result in test [1] and in test [2] was “binds” throughout.
